The record followed here is patent US20240043533A1 (NGM BIOPHARMACEUTICALS, published 2024).

Read-outs that look alike come from different tables or passages of the source.

In one experiment the target is T1, human LILRA2 (human, UniProt Q8N149 24-483).
T1 construct: whole, on cells
Put plainly: FACS on cells expressing human LILRA2, labeled anti-mouse Fc secondary antibody. The method, then: (§1) ELISA assays were used to screen antibodies against human ILT3 and human LILRA1,2,4-6. […] These antibodies were rescreened by FACS for binding to human ILT3 and cyno ILT3 expressed on HEK-293T cells. The antibodies that bound to both human and cyno ILT3 were selected. This subset of antibodies were screened by FACS against human LILRB1-5 (ILT2, ILT4, ILT5, ILT3, and LILRB5, respectively), cyno LILRB5, and human LILRA1,2,4-6. For FACS screening, each antibody was incubated with cells expressing human ILT3, cyno ILT3, one of the LILRA proteins, or one of the LILRB proteins for 30 minutes at 4° C. After washing, the cells were incubated with labeled anti-mouse Fc antibody for 30 minutes at 4° C. After washing, cells were analyzed on a flow cytometer. Antibodies were selected on the criteria of binding to human ILT3, cyno ILT3, no or limited binding to other LILRB proteins, and no or limited binding to LILRA proteins.

In another experiment the target is T2, LILRB4.
T2 construct: the construct expressed on the cells is not described further; also called human ILT3 expressed on cells for the FACS screen; ILT3
Put plainly: FACS on cells expressing human LILRB4 (ILT3), labeled anti-mouse Fc secondary antibody. As to the method: as §1

A further experiment concerns the target T3, LILRB5 (human, UniProt O75023).
T3 construct: expressed on the cell surface; also called human LILRB5; CD85C
Put plainly: FACS on cells expressing human LILRB5, labeled anti-mouse Fc secondary antibody. As to the method: as §1

The target in experiment [1] is T4, extracellular domain of human ILT3 (huILT3-ECD) (human, UniProt Q8NHJ6 22-259).
T4 construct: also called human ILT3-ECD
Put plainly: SPR (Biacore), antibody captured via anti-Fc on CM5 chip, soluble ILT3-ECD injected, 37 C. As to the method:
(§2) The binding affinities of anti-ILT3 antibodies to human ILT3 and cyno ILT3 were measured using a Biacore system (GE Healthcare LifeSciences). Briefly, anti-Fc antibody (Sigma-Aldrich) was immobilized on all four flow cells of a CM5 chip using amine coupling reagents (GE Healthcare LifeSciences). Antibodies were captured on flow cells 2, 3, and 4 using flow cell 1 as a reference. Concentrations ranging from 3.3-10 nM of human or cyno ILT3-ECD were injected at a flow rate of 50 μL/min at 37° C. Kinetic data were collected over time and fit using the simultaneous global fit equation to yield affinity constants (KD values) for each antibody.
In general terms: SPR reads the build-up and loss of mass on a sensor chip optically.

Experiment [2] concerns the target T5, extracellular domain of cyno ILT3 (cynoILT3-ECD) (cynomolgus monkey).
T5 chain: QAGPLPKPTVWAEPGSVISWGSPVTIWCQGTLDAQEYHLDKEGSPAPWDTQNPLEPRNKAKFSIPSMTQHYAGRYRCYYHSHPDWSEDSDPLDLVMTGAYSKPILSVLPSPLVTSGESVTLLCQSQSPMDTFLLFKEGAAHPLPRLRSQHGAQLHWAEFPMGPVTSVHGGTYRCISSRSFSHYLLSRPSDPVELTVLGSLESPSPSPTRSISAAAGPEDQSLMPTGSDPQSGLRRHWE
The experiment is described as above. The method, then: as §2

Another experiment addresses T6, human LILRB2 (human, UniProt Q8N423 22-597).
T6 construct: whole, on cells; also called ILT4
Put plainly: FACS on cells expressing human LILRB2, labeled anti-mouse Fc secondary antibody. The method, then:
as §1

The next experiment has as its target T7, human LILRA4 (human, UniProt P59901 24-499).
T7 construct: whole, on cells
Put plainly: FACS on cells expressing human LILRA4, labeled anti-mouse Fc secondary antibody. The method, then: as §1

Experiment [3] deals with T8, ILT3ECD-Fc (human ILT3 extracellular domain fused to an immunoglobulin Fc region) (human, UniProt Q8NHJ6 22-259).
T8 construct: also called Human ILT3ECD-Fc; not shown: immunoglobulin Fc region
Put plainly: blocking of the binding of ILT3-ECD-Fc (1 µg/mL) to endogenous fibronectin on Detroit 551 cells; imaging with polyclonal anti-ILT3 and AlexaFluor 647 secondary antibody. As to the method:
FIG. 14. ILT3 binding to endogenously expressed fibronectin. Detroit 551 cells were plated onto poly-D-lysine-coated 384-well plates at 6×10³ cells/well and incubated for two days. Monolayers were rinsed with HBSS containing Mg²⁺ and Ca²⁺. ILT3-ECD-Fc was added to the wells in the presence of ant-ILT3 antibody 16C5, anti-ILT3 antibody ch5A7, or control anti-KLH antibody. The antibodies were serially diluted 3-fold in media containing the ILT3-ECD-Fc (range of 66 nM to 0.27 nM). Cells were incubated for 1 hr at room temperature and then washed three times with HBSS and fixed with 3.7% formalin for 10 min. Monolayers were rinsed with PBS and blocked with 1% BSA in PBS before staining with Hoechst stain and a commercially available polyclonal anti-ILT3 antibody. An AlexaFluor 647-conjugated rabbit anti-goat Fc secondary antibody was added, cells were imaged, and the level of fluorescence was quantified using a CellInsight imaging system.
The Detroit 551 cell line is composed of human skin fibroblasts established from normal fetal tissue. These cells have endogenously produced fibronectin bound to receptors on their surface. […] An AlexaFluor 647-conjugated rabbit anti-goat Fc secondary antibody (Jackson ImmunoResearch Labs) was added, cells were imaged, and the level of fluorescence was quantified using a Celllnsight imaging system.

Another experiment addresses T9, LILRB3 (human, UniProt O75022).
T9 construct: expressed on the cell surface; also called human LILRB3; ILT5
Put plainly: FACS on cells expressing human LILRB3, labeled anti-mouse Fc secondary antibody. As to the method: as §1

For the next experiment, the target named is T10, human LILRA1 (human, UniProt O75019 17-489).
T10 construct: whole, on cells
Put plainly: FACS on cells expressing human LILRA1, labeled anti-mouse Fc secondary antibody. The method, then:
as §1

The target of a further experiment is T11, Cyno LILRB5 (Macaca fascicularis, UniProt A0A2K5VIP6).
T11 construct: expressed on the cell surface; also called cynomolgus LILRB5
Put plainly: FACS on cells expressing cyno LILRB5, labeled anti-mouse Fc secondary antibody. The method, then:
as §1

Another experiment concerns the target T12, human LILRA6 (human, UniProt Q6PI73 24-447, limits assumed).
T12 construct: Read out of the printed 'LILRA1,2,4-6'
Put plainly: FACS on cells expressing human LILRA6, labeled anti-mouse Fc secondary antibody. The method, then:
as §1

Experiment [4] has as its target human ILT3 expressed on myeloid cells (THP-1 cells, primary dendritic cells, macrophages) (human, UniProt Q8NHJ6 22-448). Put plainly: cell-based or functional assay.
Experiment [5] deals with ILT3 extracellular domain chimeric receptor on NFAT-GFP reporter cells (human). Put plainly: cell-based or functional assay.
The next experiment addresses T13, human LILRA5 (human, UniProt A6NI73 42-299).
T13 construct: whole, on cells
Put plainly: FACS on cells expressing human LILRA5, labeled anti-mouse Fc secondary antibody. The method, then:
as §1

Experiment [6] deals with T14, cynomolgus ILT3 expressed on cells (THP-1 reporter cells transduced with cyno ILT3); cyno monocyte-derived … (cynomolgus monkey).
T14 chain: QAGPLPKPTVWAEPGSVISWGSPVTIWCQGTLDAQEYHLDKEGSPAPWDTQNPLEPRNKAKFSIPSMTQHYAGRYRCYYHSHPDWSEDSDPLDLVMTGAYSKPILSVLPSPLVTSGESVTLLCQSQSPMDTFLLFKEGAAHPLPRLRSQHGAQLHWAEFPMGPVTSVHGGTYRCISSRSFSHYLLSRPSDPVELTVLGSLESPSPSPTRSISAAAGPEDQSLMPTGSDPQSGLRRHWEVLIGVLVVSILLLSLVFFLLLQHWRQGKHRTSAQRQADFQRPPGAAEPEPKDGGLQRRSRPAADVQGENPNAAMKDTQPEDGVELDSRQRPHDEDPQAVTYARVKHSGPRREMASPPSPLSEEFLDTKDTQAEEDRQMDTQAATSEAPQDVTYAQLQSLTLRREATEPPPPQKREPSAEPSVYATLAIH
Put plainly: cell-based or functional assay.

Experiment [7] deals with T4, extracellular domain of human ILT3 …. Put plainly: SPR (Biacore), antibody captured via anti-Fc on CM5 chip, soluble ILT3-ECD injected, 37 C. As to the method: as §2
(§3) The binding affinity of Hz5A7.v5 to human ILT3 and cyno ILT3 was determined using a Biacore system as described herein and compared with the binding affinity of the parental chimeric 5A7 (ch5A7) antibody and humanized 5A7 without any CDR modifications (Hz5A7.v1) (see Table 12).
The source holds these as a separate data set.

For experiment [8], the target named is T5, extracellular domain of cyno ILT3 …. The experiment is described as above. The method, then:
as §2, §3

Experiment [9] has as its target T15, human plasma-derived fibronectin (Millipore) (human, UniProt P02751 32-2477).
T15 construct: Bought protein; also called human plasma fibronectin; human fibronectin
Put plainly: SPR (Biacore), human plasma fibronectin amine-coupled on CM5 chip, ECD-Fc injected, 37 C. The method, then: (§4) The binding of ILT3 to fibronectin was evaluated by Biacore. Human plasma fibronectin was immobilized onto a CM5 sensor chip surface (flow cell 2) using standard amine coupling chemistry. Collagen type IV was immobilized onto flow cell 3 and used as a control. Human ILT3ECD-Fc or human LAIR1ECD-Fc were injected over both surfaces at different concentrations (125-4000 nM) at a flow rate of 50 μL/min at 37° C. Kinetic data were collected over time and fit using the simultaneous global fit equation to yield affinity constants (KD values) for each antibody.

The target in the next experiment is T16, collagen type IV.
T16 construct: Control surface in the Biacore experiment; also called collagen IV
Put plainly: SPR (Biacore), collagen type IV amine-coupled on CM5 chip, LAIR1ECD-Fc injected at 125-4000 nM, 37 C. As to the method: as §4

T9 sequence (O75022 24-631 limits assumed): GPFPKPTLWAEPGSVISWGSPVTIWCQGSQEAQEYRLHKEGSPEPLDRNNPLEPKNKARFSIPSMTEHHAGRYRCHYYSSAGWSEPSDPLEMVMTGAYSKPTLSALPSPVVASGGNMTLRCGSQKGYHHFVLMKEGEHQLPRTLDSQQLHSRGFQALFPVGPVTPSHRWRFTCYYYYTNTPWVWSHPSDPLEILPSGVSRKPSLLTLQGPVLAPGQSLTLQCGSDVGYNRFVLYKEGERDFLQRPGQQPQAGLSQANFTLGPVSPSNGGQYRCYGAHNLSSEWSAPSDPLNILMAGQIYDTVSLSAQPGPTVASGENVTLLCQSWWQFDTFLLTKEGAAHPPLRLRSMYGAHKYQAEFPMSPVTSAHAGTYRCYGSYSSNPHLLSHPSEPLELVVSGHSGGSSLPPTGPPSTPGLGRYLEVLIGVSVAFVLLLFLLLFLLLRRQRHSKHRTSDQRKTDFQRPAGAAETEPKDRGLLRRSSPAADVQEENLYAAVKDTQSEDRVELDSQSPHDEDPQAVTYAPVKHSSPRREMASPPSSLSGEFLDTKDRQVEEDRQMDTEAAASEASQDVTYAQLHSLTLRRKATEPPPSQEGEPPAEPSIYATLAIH
T2 sequence (receptor, as listed by the source limits assumed): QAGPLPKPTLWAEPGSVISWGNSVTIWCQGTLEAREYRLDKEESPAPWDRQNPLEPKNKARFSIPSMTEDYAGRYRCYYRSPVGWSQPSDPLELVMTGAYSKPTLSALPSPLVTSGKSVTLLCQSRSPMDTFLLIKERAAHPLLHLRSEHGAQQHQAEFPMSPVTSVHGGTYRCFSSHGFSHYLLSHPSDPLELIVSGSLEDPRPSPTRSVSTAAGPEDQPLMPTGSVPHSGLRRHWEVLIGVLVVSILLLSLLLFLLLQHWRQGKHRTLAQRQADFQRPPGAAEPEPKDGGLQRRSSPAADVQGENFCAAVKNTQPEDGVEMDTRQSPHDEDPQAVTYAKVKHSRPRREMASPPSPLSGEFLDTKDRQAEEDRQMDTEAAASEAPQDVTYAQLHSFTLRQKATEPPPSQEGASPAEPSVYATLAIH
T3 sequence (O75023 24-590 limits assumed): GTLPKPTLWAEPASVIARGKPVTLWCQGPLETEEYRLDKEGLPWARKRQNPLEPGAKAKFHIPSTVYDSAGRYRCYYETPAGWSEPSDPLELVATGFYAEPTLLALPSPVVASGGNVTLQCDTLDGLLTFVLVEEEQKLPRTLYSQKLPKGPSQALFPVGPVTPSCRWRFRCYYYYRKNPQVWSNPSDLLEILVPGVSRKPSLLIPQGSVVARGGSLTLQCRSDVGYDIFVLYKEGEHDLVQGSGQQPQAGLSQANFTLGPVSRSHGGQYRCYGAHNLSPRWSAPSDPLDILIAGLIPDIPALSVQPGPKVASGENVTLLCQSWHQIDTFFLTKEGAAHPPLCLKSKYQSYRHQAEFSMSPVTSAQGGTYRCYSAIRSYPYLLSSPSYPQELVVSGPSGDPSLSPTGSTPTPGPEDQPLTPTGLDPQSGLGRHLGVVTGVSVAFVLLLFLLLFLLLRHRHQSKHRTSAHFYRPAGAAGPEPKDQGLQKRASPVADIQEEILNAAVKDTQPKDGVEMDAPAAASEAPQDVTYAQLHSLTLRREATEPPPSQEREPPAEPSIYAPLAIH
Sequence of ILT3 extracellular domain chimeric receptor on NFAT-GFP reporter cells (human) (Q8NHJ6 22-259, change not shown): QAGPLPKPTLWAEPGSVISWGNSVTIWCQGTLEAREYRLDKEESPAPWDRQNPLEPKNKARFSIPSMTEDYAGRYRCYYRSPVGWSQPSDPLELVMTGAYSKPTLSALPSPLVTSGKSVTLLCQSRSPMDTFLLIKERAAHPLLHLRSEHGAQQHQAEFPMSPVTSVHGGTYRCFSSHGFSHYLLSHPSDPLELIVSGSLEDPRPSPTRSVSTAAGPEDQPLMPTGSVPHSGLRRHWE
T7 sequence (P59901 24-499): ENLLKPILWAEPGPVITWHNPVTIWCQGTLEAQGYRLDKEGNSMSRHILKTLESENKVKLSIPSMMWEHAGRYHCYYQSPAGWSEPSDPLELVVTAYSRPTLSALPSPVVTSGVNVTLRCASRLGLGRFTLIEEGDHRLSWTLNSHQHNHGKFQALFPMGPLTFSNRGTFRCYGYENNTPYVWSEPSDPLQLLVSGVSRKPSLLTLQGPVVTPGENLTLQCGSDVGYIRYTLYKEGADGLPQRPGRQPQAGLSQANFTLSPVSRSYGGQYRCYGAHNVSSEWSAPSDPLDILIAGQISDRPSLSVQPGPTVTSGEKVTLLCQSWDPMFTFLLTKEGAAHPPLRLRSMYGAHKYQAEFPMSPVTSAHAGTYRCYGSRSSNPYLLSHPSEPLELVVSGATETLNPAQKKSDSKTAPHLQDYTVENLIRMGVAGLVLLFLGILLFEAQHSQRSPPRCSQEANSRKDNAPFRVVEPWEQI
T11 sequence (A0A2K5VIP6 entry or part of it): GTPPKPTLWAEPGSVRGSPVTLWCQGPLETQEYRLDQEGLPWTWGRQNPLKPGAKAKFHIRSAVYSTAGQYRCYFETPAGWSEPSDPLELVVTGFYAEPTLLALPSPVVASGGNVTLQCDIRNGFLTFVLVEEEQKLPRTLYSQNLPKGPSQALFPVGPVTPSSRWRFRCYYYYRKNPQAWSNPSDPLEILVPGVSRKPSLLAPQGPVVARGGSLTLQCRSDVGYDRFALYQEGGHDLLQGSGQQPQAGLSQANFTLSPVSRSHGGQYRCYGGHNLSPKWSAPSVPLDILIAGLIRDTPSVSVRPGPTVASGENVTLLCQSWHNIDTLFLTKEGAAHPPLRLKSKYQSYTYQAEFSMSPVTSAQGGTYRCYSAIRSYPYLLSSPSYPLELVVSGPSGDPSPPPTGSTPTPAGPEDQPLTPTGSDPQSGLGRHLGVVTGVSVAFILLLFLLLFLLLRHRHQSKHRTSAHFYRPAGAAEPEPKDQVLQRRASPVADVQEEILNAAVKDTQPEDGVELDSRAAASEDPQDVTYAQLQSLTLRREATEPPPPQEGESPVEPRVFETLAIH
T1 sequence (Q8N149 24-483): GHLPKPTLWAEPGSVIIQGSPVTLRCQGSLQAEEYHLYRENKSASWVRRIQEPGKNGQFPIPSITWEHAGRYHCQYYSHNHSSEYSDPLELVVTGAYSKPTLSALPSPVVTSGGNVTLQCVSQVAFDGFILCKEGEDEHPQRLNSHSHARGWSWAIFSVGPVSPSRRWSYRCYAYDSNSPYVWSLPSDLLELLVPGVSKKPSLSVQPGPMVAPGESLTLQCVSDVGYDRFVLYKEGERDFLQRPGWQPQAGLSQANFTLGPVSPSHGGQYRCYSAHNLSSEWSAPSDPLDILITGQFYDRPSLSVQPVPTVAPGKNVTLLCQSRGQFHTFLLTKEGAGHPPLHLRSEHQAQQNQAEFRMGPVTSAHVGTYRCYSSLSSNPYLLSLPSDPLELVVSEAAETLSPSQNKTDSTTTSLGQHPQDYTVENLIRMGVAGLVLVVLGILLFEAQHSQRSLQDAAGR
T6 sequence (Q8N423 22-597): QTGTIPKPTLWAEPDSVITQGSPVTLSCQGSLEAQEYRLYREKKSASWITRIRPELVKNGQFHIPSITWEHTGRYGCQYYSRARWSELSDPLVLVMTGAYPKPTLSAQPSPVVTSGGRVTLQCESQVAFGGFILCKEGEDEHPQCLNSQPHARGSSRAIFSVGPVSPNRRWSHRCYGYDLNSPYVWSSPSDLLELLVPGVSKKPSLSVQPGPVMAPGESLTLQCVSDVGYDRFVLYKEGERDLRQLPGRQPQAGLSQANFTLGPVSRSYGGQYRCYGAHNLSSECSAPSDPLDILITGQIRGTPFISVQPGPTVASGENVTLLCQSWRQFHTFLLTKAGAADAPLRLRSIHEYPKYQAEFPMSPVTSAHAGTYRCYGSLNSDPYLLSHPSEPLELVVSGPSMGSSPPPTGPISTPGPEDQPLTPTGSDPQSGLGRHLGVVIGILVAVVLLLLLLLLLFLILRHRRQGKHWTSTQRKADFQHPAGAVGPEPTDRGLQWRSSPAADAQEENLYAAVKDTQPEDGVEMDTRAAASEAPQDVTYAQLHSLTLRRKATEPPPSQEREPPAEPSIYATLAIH
T10 sequence (O75019 17-489): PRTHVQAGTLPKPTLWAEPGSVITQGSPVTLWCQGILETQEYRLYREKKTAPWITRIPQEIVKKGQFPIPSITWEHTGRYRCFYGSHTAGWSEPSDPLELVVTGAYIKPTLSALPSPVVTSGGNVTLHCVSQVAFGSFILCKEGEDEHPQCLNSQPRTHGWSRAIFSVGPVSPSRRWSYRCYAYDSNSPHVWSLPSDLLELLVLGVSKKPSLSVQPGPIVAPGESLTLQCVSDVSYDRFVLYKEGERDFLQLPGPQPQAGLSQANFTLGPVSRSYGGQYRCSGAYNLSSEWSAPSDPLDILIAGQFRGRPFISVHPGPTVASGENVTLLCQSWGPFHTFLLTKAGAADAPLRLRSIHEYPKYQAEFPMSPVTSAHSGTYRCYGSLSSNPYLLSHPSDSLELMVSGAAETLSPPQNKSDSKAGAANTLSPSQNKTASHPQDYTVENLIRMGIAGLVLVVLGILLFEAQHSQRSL
T12 sequence (Q6PI73 24-447 limits assumed): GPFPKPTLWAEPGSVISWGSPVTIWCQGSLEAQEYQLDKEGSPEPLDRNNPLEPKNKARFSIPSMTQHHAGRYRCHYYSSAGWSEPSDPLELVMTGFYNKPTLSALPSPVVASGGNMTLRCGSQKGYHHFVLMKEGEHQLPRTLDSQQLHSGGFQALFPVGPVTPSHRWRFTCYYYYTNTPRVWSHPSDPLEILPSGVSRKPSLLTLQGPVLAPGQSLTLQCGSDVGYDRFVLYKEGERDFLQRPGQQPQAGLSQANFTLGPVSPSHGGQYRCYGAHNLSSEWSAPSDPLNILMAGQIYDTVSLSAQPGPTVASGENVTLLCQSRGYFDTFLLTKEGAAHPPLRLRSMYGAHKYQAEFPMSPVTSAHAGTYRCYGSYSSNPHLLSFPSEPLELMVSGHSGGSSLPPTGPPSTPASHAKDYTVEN

B1: anti-ILT3 antibody 16C5 (antibody, V domains shown)
VH: EVQLQQSGPELVKPGASVKISCKASGYTFTDYNMDWVKQSHGKSLEWIGYIYPSNGGTGYNQKFKSKATLTVDKSSNTAYMELHSLTSEDSAVYYCARVPYYDYLYYYAMDYWGQGTSVTVSS
VL: QIVLSQSPAILSASPGEKVTMACRASSSVSFMHWYQQKPGSSPQPWIYATSNLASGVPARFSGSGSGTSYSLTISRVEAEDAATYYCQQWSTNPYMYTFGGGTKLEIK
notes: Mouse monoclonal antibody from hybridoma
By Kd is commonly meant a measure of binding affinity in units of concentration. Broadly, the koff is the first-order rate constant of dissociation. A higher koff goes with fast dissociation. The kon is a measure of how fast the partners come together. Read a high kon as fast association. One may read the EC50 (read off the curve) as the concentration needed to bring the measured effect to its halfway point. Higher therefore signals weaker potency. Consider B1, for which the binding result was “no binding (tested: log [Ab] about -7.2 M (about 6e-8 M))” with human LILRA2; “binds” with LILRB4; “no binding (tested: log [Ab] about -7.2 M (about 6e-8 M))” with LILRB5; “no binding (tested: log [Ab] about -7.2 M (about 6e-8 M))” in the experiment with human LILRB2; “no binding (tested: log [Ab] about -7.2 M (about 6e-8 M))” with human LILRA4; “binds” in [3]. For the same molecule, the binding result was “no binding (tested: log [Ab] about -7.2 M (about 6e-8 M))” with LILRB3, “no binding (tested: log [Ab] about -7.2 M (about 6e-8 M))” with human LILRA1, “no binding (tested: log [Ab] about -7.2 M (about 6e-8 M))” with human LILRA6 and “binds” with human LILRA5. The values for the Kd in [1] and in experiment [2] were 1.8 nM and 0.31 nM, respectively. Besides, the koff is 0.0002 s⁻¹ in experiment [1] and 9e-05 s⁻¹ in experiment [2]. Besides, the kon in experiment [1] turned out to be 110000 M⁻¹ s⁻¹; in experiment [2], 290000 M⁻¹ s⁻¹. Besides, the concentration giving a half-maximal response (EC50 (read off the curve)) was around 900 pM in the experiment with Cyno LILRB5 and around 2 nM in [4]. Also, the “IC50 (read off the curve)” value in experiment [5] is around 200 pM.

B2: anti-ILT3 antibody Hz5A7.v5 (antibody, human IgG1, kappa, N297G, V domains shown)
VH: EVQLVESGGGLVQPGGSLRLSCAASGFTFSSYGMSWVRQAPGKGLEWVATISGGGSYTNYPDSVKGRFTISRDNAKNSLYLQMNSLRAEDTAVYYCARREWRYTLYAMDYWGQGTTVTVSS
VL: DIQLTQSPSFLSASVGDRVTITCRASESVESYGSSFMHWYQQKPGKAPKLLIYLTSNLESGVPSRFSGSGSGTEFTLTISSLQPEDFATYYCQQNNEDPFTFGQGTKLEIKR
notes: Humanized 5A7 variant
As to B2, in [6], the “EC50 (read off the curve)” value is around 200 pM. Also, in experiment [7], the Kd came to 0.28 nM, the koff is 0.00081 s⁻¹ and the kon was determined as 2.8e+06 M⁻¹ s⁻¹. In [8], this molecule returned an equilibrium dissociation constant (Kd) of 0.7 nM, a koff of 0.0071 s⁻¹ and a kon of 1.1e+07 M⁻¹ s⁻¹.

B3: human LAIR1ECD-Fc (Fc fusion, UniProt Q6GTX8 22-165, looked up)
chain: QEEDLPRPSISAEPGTVIPLGSHVTFVCRGPVGVQTFRLERDSRSTYNDTEDVSQASPSESEARFRIDSVREGNAGLYRCIYYKPPKWSEQSDYLELLVKESSGGPDSPDTEPGSSAGPTQRPSDNSHNEHAPASQGLKAEHLY
notes: extracellular domain; not shown: Fc region
For the molecule B3, in experiment [9], the binding result is listed as “no binding (tested: 125-4000 nM)”. In the experiment with collagen type IV, this molecule gave a Kd of at least 5 µM.
